Measured values reported in patent US20120058906A1 (published 2012).
Values belong to the binder of their own block, whether it stands above or below them.

Legend:
[1] = target: T1, rHuman ErbB2/Fc Chimera, CF (R&D Systems Cat#1129-ER) (human, UniProt P04626 23-652); assay: ECL (MSD multi-spot) titration, Fab at 36 nM; blank spot 413
T1 construct: Bought protein; also called HER2/neu; human epidermal growth factor 2 receptor; not shown: Fc of the bought chimera

[2] = target: T2, rHuman HGF R/c-MET/Fc Chimera, CF (R&D Systems Cat#358-MT/CF) (human, UniProt P08581 25-932); assay: as above
T2 construct: Bought protein; also called HGF R/Fc; hepatocyte growth factor receptor; not shown: Fc of the bought chimera

[3] = target: T3, rHuman CD44/Fc Chimera, CF (R&D Systems Cat#3660-CD) (human, UniProt P16070 21-220); assay: as above
T3 construct: Bought protein; not shown: Fc of the bought chimera

[4] = target: T4, rHuman Erythropoietin R/Fc Chimera, CF (R&D Systems Cat#963-ER) (human, UniProt P19235 25-250); assay: as above
T4 construct: Bought protein; also called EPO R/Fc; EPOR; not shown: Fc of the bought chimera
T4 sequence: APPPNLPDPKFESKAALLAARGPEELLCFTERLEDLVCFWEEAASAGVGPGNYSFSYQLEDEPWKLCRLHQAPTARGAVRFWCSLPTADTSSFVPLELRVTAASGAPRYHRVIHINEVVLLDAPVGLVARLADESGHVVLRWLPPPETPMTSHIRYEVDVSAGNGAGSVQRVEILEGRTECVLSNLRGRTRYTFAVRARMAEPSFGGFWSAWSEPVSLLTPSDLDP

[5] = target: T5, rHuman IGF-1 sR, CF (R&D Systems Cat#391-GR) (human, UniProt P08069 31-932); assay: as above
T5 construct: Bought soluble receptor; also called insulin-like growth factor-1 soluble receptor; IGF-R1

[6] = target: T6, rHuman P-Cadherin/Fc Chimera, CF (R&D Systems Cat#861-PC) (human, UniProt P22223 108-654); assay: as above
T6 construct: Bought protein; not shown: Fc of the bought chimera

[7] = target: T1, rHuman ErbB2/Fc Chimera, CF (R&D …); assay: ECL (MSD multi-spot) titration, Fab at 360 nM; blank spot 462
[8] = target: T2, rHuman HGF R/c-MET/Fc Chimera, CF (R&D …); assay: as above
[9] = target: T3, rHuman CD44/Fc Chimera, CF (R&D Systems …); assay: as above
[10] = target: T4, rHuman Erythropoietin R/Fc Chimera, CF …; assay: as above
[11] = target: T5, rHuman IGF-1 sR, CF (R&D Systems …); assay: as above
[12] = target: T6, rHuman P-Cadherin/Fc Chimera, CF (R&D …); assay: as above
[13] = target: T7, rHuman EGF R/Fc Chimera, CF (R&D Systems Cat#344-ER) (human, UniProt P00533 25-645); assay: ECL (MSD multi-spot) titration, Fab at 0.00391 uM; blank spot 576
T7 construct: Bought protein; also called epidermal growth factor receptor; not shown: Fc of the bought chimera

[14] = target: T4, rHuman Erythropoietin R/Fc Chimera, CF …; assay: as above
[15] = target: T5, rHuman IGF-1 sR, CF (R&D Systems …); assay: as above
[16] = target: T8, Recombinant Human DLL4 (R&D Systems Cat#1506-D4/CF) (human, UniProt Q9NR61 27-524); assay: as above
T8 construct: Bought protein; also called delta-like protein 4

[17] = target: T6, rHuman P-Cadherin/Fc Chimera, CF (R&D …); assay: as above
[18] = target: T7, rHuman EGF R/Fc Chimera, CF (R&D …); assay: ECL (MSD multi-spot) titration, Fab at 0.01563 uM; blank spot 906
[19] = target: T4, rHuman Erythropoietin R/Fc Chimera, CF …; assay: as above
[20] = target: T5, rHuman IGF-1 sR, CF (R&D Systems …); assay: as above
[21] = target: T8, Recombinant Human DLL4 (R&D Systems …); assay: as above
[22] = target: T6, rHuman P-Cadherin/Fc Chimera, CF (R&D …); assay: as above
[23] = target: T7, rHuman EGF R/Fc Chimera, CF (R&D …); assay: ECL (MSD multi-spot) titration, Fab at 0.0625 uM; blank spot 1738
[24] = target: T4, rHuman Erythropoietin R/Fc Chimera, CF …; assay: as above
[25] = target: T5, rHuman IGF-1 sR, CF (R&D Systems …); assay: as above
[26] = target: T8, Recombinant Human DLL4 (R&D Systems …); assay: as above
[27] = target: T6, rHuman P-Cadherin/Fc Chimera, CF (R&D …); assay: as above
[28] = target: T7, rHuman EGF R/Fc Chimera, CF (R&D …); assay: ECL (MSD multi-spot) titration, Fab at 0.25 uM; blank spot 6344
[29] = target: T4, rHuman Erythropoietin R/Fc Chimera, CF …; assay: as above
[30] = target: T5, rHuman IGF-1 sR, CF (R&D Systems …); assay: as above
[31] = target: T8, Recombinant Human DLL4 (R&D Systems …); assay: as above
[32] = target: T6, rHuman P-Cadherin/Fc Chimera, CF (R&D …); assay: as above
[33] = target: T9, Recombinant Human DLL4 (R&D Systems Cat#1506-D4/CF) (human, UniProt Q9NR61 27-524); assay: MSD ECL multi-spot assay, antigen spotted on plate, Fab 0.93 uM; blank spot 859
T9 construct: Bought protein; also called delta-like protein 4; rHuman DLL4

[34] = target: T10, rHuman Notch-1/Fc Chimera, CF (R&D Systems Cat#3647-TK) (human, UniProt P46531 19-526); assay: as above
T10 construct: Bought protein; Fc part of the bought chimera not given

[35] = target: T11, rHuman P-Cadherin/Fc Chimera, CF (R&D Systems Cat#861-PC) (human, UniProt P22223 108-654); assay: as above
T11 construct: Bought protein; also called CDH3; Fc part of the bought chimera not given

[36] = target: T12, rHuman Erythropoietin R/Fc Chimera, CF (R&D Systems Cat#963-ER) (human, UniProt P19235 25-250); assay: as above
T12 construct: Bought protein; also called EPOR; EPO R/Fc; Fc part of the bought chimera not given
T12 sequence: T4 sequence

[37] = target: T13, rHuman CD44/Fc Chimera, CF (R&D Systems Cat#3660-CD) (human, UniProt P16070 21-220); assay: as above
T13 construct: Bought protein; Fc part of the bought chimera not given

[38] = target: T14, rHuman ErbB2/Fc Chimera, CF (R&D Systems Cat#1129-ER) (human, UniProt P04626 23-652); assay: as above
T14 construct: Bought protein; also called HER2/neu; human epidermal growth factor 2 receptor; Fc part of the bought chimera not given

[39] = target: T15, rHuman IGF-1 sR (IGF-1 sR), CF (R&D Systems Cat#391-GR) (human, UniProt P08069 31-932); assay: as above
T15 construct: Bought soluble receptor; also called insulin-like growth factor-1 soluble receptor; IGF-R1
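Also: blank spot per well as comparator with Hit at signal to blank ratio of 4 or more.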

ECL signal [1]: 600
ECL signal [2]: 613
ECL signal [3]: 679
ECL signal [4]: 2980
ECL signal [5]: 486
ECL signal [6]: 693
ECL signal [7]: 647
ECL signal [8]: 581
ECL signal [9]: 740
ECL signal [10]: 4720
ECL signal [11]: 535
ECL signal [12]: 636
B1: Fab VH4-28_IGHD7-27*01_IGHJ1*01 & L2_IGKJ1*01 (Fab, V domains shown)
VH: QVQLQESGPGLVKPSDTLSLTCAVSGYSISSSNWWGWIRQPPGKGLEWIGYIYYSGSTYYNPSLKSRVTMSVDTSKNQFSLKLSSVTAVDTAVYYCARTNWGAEYFQHWGQGTLVTVSS
VL: not shown
notes: also called Fab No. 1

ECL signal [13]: 35900
ECL signal [14]: 5020
ECL signal [15]: 822
ECL signal [16]: 1550
ECL signal [17]: 1960
ECL signal [18]: 70800
ECL signal [19]: 11300
ECL signal [20]: 1740
ECL signal [21]: 4020
ECL signal [22]: 4940
ECL signal [23]: 94800
ECL signal [24]: 21100
ECL signal [25]: 3150
ECL signal [26]: 8050
ECL signal [27]: 7740
ECL signal [28]: 117000
ECL signal [29]: 49200
ECL signal [30]: 11000
ECL signal [31]: 27700
ECL signal [32]: 25500
B2: Fab VH1-46_IGHD2-15*01_IGHJ2*01 & L2_IGKJ1*01 (Fab, V domains shown)
VH: QVQLVQSGAEVKKPGASVKVSCKASGYTFTSYYMHWVRQAPGQGLEWMGIINPSGGSTSYAQKFQGRVTMTRDTSTSTVYMELSSLRSEDTAVYYCAREGYCSGGSCYSYWYFDLWGRGTLVTVSS
VL: not shown
notes: also called Fab No. 6

ECL signal [33]: 9630
ECL signal [34]: 1920
ECL signal [35]: 2420
ECL signal [36]: 4240
ECL signal [37]: 1450
ECL signal [38]: 1610
ECL signal [39]: 1790
B3: Fab VH1-46_IGHD6-13*01_IGHJ4*01 & O1_IGKJ1*01 (Fab, V domains shown)
VH: QVQLVQSGAEVKKPGASVKVSCKASGYTFTSYYMHWVRQAPGQGLEWMGIINPSGGSTSYAQKFQGRVTMTRDTSTSTVYMELSSLRSEDTAVYYCAREGYSSSWYDYFDYWGQGTLVTVSS
VL: DIVMTQTPLSLPVTPGEPASISCRSSQSLLDSDDGNTYLDWYLQKPGQSPQLLIYTLSYRASGVPDRFSGSGSGTDFTLKISRVEAEDVGVYYCMQRIEFPSWTFGQGTKVEIK
notes: Fab from E. coli; VH joined to the CH1 (Flag and His tags) of Plasmid A, VL to the kappa CL of Plasmid C
